Measured values: patent publication US20160319032A1

B1: sc 133 (antibody, V domains shown)
VH: QVQLVQSGAEVKKPGASVKVSCKASGYTFTGYYMHWVRQAPGQGLEWMGWINPKSGDTNYAQKFQGRVTLTRDTSTSTAYMELSRLRSDDTAVYYCARRLDVWGQGTTVTVSS
VL: QSVLTQPPSVSAAPGQKVTISCSGSSSNIGNNYVSWYQQLPGTAPKLLIYDNNKRPSGIPDRFSGSKSGTSATLGITGLQTGDEADYYCGTWNSSLSAGYVFGTGTKVTV
B2: sc 264 (antibody, V domains shown)
VH: QVQLQESGPGLVKPSQTLSLTCTVSGGSISSGGYYWSWIRQHPGKGLEWIGYIYYSGRTYNNPSLKSRVTISVDTSKNQFSLKLSSVTAADTAVYYCARVATGRGDYHFYAMDVWGQGTTVTVSS
VL: SYELTQPSSVSVSPGQTARITCSGDVLAKKSARWFHQKPGQAPVLVIYKDSERPSGIPERFSGSSSGTTVTLTISGAQVEDEAAYYCYSAADNNLVFGGGTKLTVL

Key:
[1] = molecular target: cynomolgus β6 on transfected HEK-293 cells (cynomolgus); assay: FACS, purified mAb, transfected HEK-293 (parental: 2)
[2] = molecular target: mouse αVβ6 on cells (mouse) (UniProt P43406); assay: FACS, K562 cells expressing mouse αVβ6 (parental K562: 33)
mouse αVβ6 on cells (mouse), sequence (P43406 31-1044, chain 1 of 2): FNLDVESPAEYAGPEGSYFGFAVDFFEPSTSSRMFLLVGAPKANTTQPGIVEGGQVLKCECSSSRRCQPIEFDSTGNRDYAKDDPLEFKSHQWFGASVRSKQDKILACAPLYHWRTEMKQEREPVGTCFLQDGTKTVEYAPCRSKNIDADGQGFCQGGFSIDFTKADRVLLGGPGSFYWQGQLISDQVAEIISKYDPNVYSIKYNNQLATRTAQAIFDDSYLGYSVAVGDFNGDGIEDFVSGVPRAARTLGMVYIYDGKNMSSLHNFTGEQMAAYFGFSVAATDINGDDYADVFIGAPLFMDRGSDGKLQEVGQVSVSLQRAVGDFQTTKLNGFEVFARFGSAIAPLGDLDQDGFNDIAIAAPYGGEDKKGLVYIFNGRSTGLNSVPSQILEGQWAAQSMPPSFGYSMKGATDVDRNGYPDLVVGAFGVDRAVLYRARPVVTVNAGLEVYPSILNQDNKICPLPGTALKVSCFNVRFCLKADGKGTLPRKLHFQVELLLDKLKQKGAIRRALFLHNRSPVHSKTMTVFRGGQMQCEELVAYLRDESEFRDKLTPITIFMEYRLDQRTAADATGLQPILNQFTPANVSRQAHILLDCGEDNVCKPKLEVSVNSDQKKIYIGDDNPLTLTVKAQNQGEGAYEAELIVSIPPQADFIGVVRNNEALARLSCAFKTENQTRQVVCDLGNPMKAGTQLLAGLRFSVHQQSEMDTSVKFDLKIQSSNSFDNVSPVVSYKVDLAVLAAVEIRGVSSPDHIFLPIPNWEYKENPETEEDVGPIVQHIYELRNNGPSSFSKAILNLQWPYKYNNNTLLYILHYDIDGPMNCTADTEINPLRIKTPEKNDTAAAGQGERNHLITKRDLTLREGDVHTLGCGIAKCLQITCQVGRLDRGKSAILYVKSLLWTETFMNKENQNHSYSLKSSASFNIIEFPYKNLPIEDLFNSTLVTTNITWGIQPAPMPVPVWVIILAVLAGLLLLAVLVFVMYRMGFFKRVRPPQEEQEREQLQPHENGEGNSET
mouse αVβ6 on cells (mouse), sequence (Q9Z0T9 22-787, chain 2 of 2, further chain): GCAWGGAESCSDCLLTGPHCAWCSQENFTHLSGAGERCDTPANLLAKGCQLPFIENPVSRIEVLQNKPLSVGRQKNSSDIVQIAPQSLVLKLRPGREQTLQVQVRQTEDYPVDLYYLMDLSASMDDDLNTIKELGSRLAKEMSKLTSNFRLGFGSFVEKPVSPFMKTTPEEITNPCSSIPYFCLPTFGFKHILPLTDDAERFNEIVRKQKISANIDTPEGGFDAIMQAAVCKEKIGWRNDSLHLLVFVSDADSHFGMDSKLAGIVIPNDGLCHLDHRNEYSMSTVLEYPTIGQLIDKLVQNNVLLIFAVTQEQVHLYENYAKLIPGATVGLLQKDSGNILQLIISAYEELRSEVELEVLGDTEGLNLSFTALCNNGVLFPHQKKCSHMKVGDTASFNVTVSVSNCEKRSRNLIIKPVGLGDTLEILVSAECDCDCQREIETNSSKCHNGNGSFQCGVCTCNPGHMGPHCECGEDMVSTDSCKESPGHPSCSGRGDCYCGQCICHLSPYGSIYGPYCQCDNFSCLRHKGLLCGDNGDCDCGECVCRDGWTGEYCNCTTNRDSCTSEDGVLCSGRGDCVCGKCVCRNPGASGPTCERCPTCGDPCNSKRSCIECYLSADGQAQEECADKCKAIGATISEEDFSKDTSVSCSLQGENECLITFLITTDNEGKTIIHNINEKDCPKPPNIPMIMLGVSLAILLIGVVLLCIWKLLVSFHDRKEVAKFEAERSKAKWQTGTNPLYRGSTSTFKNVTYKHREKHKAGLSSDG

[3] = molecular target: mouse αVβ6 on cells (mouse) (UniProt P43406); assay: FACS, purified mAb, transfected HEK-293 (parental: 74)

| Binder | percent of cells shifted [1] [%] | Geometric Mean Shift (arbitrary units) [2] | percent of cells shifted [3] [%] |
| --- | --- | --- | --- |
| B1 | 10 | – | – |
| B2 | – | 160 | 63 |
